According to patent US20260265403A1 (TJ BIOPHARMA SHANGHAI, published 2026):

T1: human CD24 on cells (human, UniProt P25063 27-59)
T1 chain (looked up): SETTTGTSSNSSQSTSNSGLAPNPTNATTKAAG

T2: CD24-his protein (human, UniProt P25063 27-59, posttranslational modification (purified from mammalian cell))
T2 construct: Purified from mammalian (HEK293) cells; also called soluble recombinant CD24 protein; human HEK293 purified CD24-his protein; not shown: His tag
T2 chain (looked up): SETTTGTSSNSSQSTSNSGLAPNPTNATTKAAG

T3: CD24-his-GST(Ecoli)
T3 construct: also called CD24-GST
T3 chain: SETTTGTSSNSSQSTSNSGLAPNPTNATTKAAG

T4: Human CD24 (human, UniProt P25063 27-59, limits assumed)
T4 chain (looked up): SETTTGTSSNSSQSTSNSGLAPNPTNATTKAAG


What was measured:
human CD24 on cells [1] = target: T1, human CD24 on cells; assay: cell-based or functional assay
human CD24 on cells [2] = target: T1, human CD24 on cells; assay: flow cytometry (MFI), MCF-7 cells [Cont'd) B]
human CD24 on cells [3] = target: T1, human CD24 on cells; assay: flow cytometry (MFI), NALM6 cells [Cont'd) B]
human CD24 on cells [4] = target: T1, human CD24 on cells; assay: flow cytometry (GMFI), MCF-7 cells
human CD24 on cells [5] = target: T1, human CD24 on cells; assay: flow cytometry (GMFI), NALM6 cells
CD24-his protein [6] = target: T2, CD24-his protein; assay: ELISA, CD24-his(HEK 293) [Cont'd) B]
CD24-his-GST(Ecoli) = target: T3, CD24-his-GST(Ecoli); assay: ELISA, CD24-his-GST(Ecoli) [Cont'd) B]
human CD24 on cells [7] = target: T1, human CD24 on cells; assay: flow cytometry (GMFI), MCF-7 cells [Cont'd) C]
human CD24 on cells [8] = target: T1, human CD24 on cells; assay: flow cytometry (GMFI), MC38-hCD24 cells [Cont'd) C]
Human CD24 [9] = target: T4, Human CD24; assay: Biacore (SPR); antibody as ligand, human CD24 as analyte
human CD24 on cells [10] = target: T1, human CD24 on cells; assay: Siglec10-PE competition assay (GMFI); competitor Siglec-10; CD24 source not named on the sheet [Cont'd) D]
Human CD24 [11] = target: T4, Human CD24; assay: SPR, second 1:1 binding column set
Human CD24 [12] = target: T4, Human CD24; assay: SPR affinity ranking, 1:1 binding, analyte conc. 19.71 nM
Human CD24 [13] = target: T4, Human CD24; assay: affinity ranking; antibody as ligand, Human CD24 as analyte
human CD24 on cells [14] = target: T1, human CD24 on cells; assay: flow cytometry (GMFI), MCF-7 cells; EC50 table under the graphs
human CD24 on cells [15] = target: T1, human CD24 on cells; assay: flow cytometry (GMFI), SKOV3 cells; EC50 table under the graphs [Cont'd) B]
CD24-his protein [16] = target: T2, CD24-his protein; assay: Siglec10-PE competition assay (gMFI on the sheet); legend: Siglec-10-his-Biotin mixed with the antibody, plate coated with CD24 protein
Experimental: Samples were washed three times with washing buffer. And then signal was tested.
CD24-his protein was firstly coated in 96-well plate overnight.

Binder	EC50 of Phagocytosis assay, IgG4, Kappa; HEK293-CD24 (human CD24 on cells [1]) [mg/L]	EC50 of Phagocytosis assay, IgG4, Kappa; MCF-7 (human CD24 on cells [1]) [mg/L]	EC50 of Phagocytosis assay, IgG4, Kappa; NALM6 (human CD24 on cells [1]) [mg/L]	EC50 of Phagocytosis assay, IgG4, Kappa; OVCAR3 (human CD24 on cells [1]) [mg/L]	EC50 (read off the curve) (human CD24 on cells [3]) [mg/L]	EC50 (human CD24 on cells [14]) [mg/L]	EC50 (human CD24 on cells [15]) [mg/L]	Kd (Human CD24 [13]) [µM]	koff (Human CD24 [13]) [s⁻¹]	kon (Human CD24 [13]) [M⁻¹ s⁻¹]	also measured
85-D5A10 (4434), IgG4, Kappa (antibody, V domains shown) VH: EVQLQQSGPELVKPGASVKISCKASGYEFTGYHMNWVKQSPEKSLEWIGEINPITSDKTFNQKFKAKATLTVDRSSSTAYMHLKSLTSDDSAVYYCARRDYGTSLDYWGQGTTLTVSS VL: DVQITQSPSYLAASPGETITIYCRASKSISKYLAWYQEKPEKTIRLLIYAGSTLQSGIPSRFRGSGSGKDFTLTVSGLEPEDFAMYYCQQHNEYPITFGAGTKLELI	0.42	0.43	0.47	0.38	~0.4						EC50 (read off the curve) (human CD24 on cells [2]): ~0.4 mg/L
74-H4C6 (4451), IgG4, Kappa (antibody, V domains shown) VH: EVQLQQSGPELVKPGASVKISCKASGYDFTGYHMNWVKQSPEKSLEWIGEINPITSDKTFNQKFKSKATLTVDRSSSTAYMYLKSLTSEDSAVYYCARRDYGTSLDYWGQGTTLTVSS VL: DVQITQSPSYLAASPGETITIYCRASKSISKYLAWYQEKPEKTNRLLIYAGSTLHSGIPSRFRGSGSGKDFTLTVSGLEPEDFAMYYCQQHNEYPITFGAGTKLELK	0.44	0.74	0.32	0.16	~0.4						
4451H-IgG4 (antibody, V domains shown, also called VH1+VL3 fused with human IgG4 Fc) VH: QVQLVQSGAEVKKPGASVKVSCKASGYDFTGYHMNWVRQAPGQGLEWMGEINPITSDKTFNQKFKSRVTMTRDTSISTAYMELSRLRSDDTAVYYCARRDYGTSLDYWGQGTTVTVSS VL: DIQLTQSPSFLSASVGDRVTITCRASKSISKYLAWYQQKPGKAPKLLIYAGSTLHSGIPSRFRGSGSGTEFTLTISSLQPEDFATYYCQQHNEYPITFGQGTKLEIK											EC50 (read off the curve) (human CD24 on cells [4]): ~0.2 mg/L; EC50 (read off the curve) (human CD24 on cells [5]): ~0.3 mg/L; EC50 (read off the curve) (CD24-his protein [6]): ~0.02 mg/L; EC50 (read off the curve) (CD24-his-GST(Ecoli)): ~0.06 mg/L; EC50 (read off the curve) (human CD24 on cells [7]): ~0.2 mg/L; EC50 (read off the curve) (human CD24 on cells [8]): ~0.2 mg/L; Kd (Human CD24 [9]): 0.0155 µM; koff (Human CD24 [9]): 0.0175 s⁻¹; kon (Human CD24 [9]): 1.13e+06 M⁻¹ s⁻¹; IC50 (read off the curve) (human CD24 on cells [10]): ~1 mg/L
VH1 + VL3 (4451H) (antibody, V domains shown, also called Antibody No 0; Parental) VH: QVQLVQSGAEVKKPGASVKVSCKASGYDFTGYHMNWVRQAPGQGLEWMGEINPITSDKTFNQKFKSRVTMTRDTSISTAYMELSRLRSDDTAVYYCARRDYGTSLDYWGQGTTVTVSS VL: DIQLTQSPSFLSASVGDRVTITCRASKSISKYLAWYQQKPGKAPKLLIYAGSTLHSGIPSRFRGSGSGTEFTLTISSLQPEDFATYYCQQHNEYPITFGQGTKLEIK						0.39	0.44				apparent Kd (pooled screen) (Human CD24 [11]): 0.0251 µM; apparent koff (pooled screen) (Human CD24 [11]): 0.0192 s⁻¹; apparent kon (pooled screen) (Human CD24 [11]): 763000 M⁻¹ s⁻¹; apparent Kd (pooled screen) (Human CD24 [12]): 0.172 µM; apparent koff (pooled screen) (Human CD24 [12]): 0.0275 s⁻¹; apparent kon (pooled screen) (Human CD24 [12]): 160000 M⁻¹ s⁻¹; apparent Kd (pooled screen) (Human CD24 [13]): 0.0231 µM; apparent koff (pooled screen) (Human CD24 [13]): 0.0158 s⁻¹; apparent kon (pooled screen) (Human CD24 [13]): 685000 M⁻¹ s⁻¹
4451HM15-IgG4 (antibody, V domains shown, IgG4; also called IgG4 isoform of 4451HM15) VH: QVQLVQSGAEVKKPGASVKVSCKASGYDFTGYHMGWVRQAPGQGLEWMGEINPITSDKYFNQKFKSRVTMTRDTSISTAYMELSRLRSDDTAVYYCARRDYGTSLDYWGQGTTVTVSS VL: DIQLTQSPSFLSASVGDRVTITCRASASISKYLAWYQQKPGKAPKLLIYAGSTLHSGIPSRFRGSGSGTEFTLTISSLQPEDFATYYCQQHNEYPITFGQGTKLEIK											IC50 (read off the curve) (CD24-his protein [16]): ~1 mg/L

Continued, in another order:

EC50 of Phagocytosis assay, IgG4, Kappa; HEK293-CD24 (human CD24 on cells [1]) [mg/L]	EC50 of Phagocytosis assay, IgG4, Kappa; MCF-7 (human CD24 on cells [1]) [mg/L]	EC50 of Phagocytosis assay, IgG4, Kappa; NALM6 (human CD24 on cells [1]) [mg/L]	EC50 of Phagocytosis assay, IgG4, Kappa; OVCAR3 (human CD24 on cells [1]) [mg/L]	EC50 (read off the curve) (human CD24 on cells [3]) [mg/L]	EC50 (human CD24 on cells [14]) [mg/L]	EC50 (human CD24 on cells [15]) [mg/L]	Kd (Human CD24 [13]) [µM]	koff (Human CD24 [13]) [s⁻¹]	kon (Human CD24 [13]) [M⁻¹ s⁻¹]	Binder	also measured
0.43	0.96	0.57	0.16	~0.5						89-E8C12 (4428), IgG4, Kappa (antibody, V domains shown) VH: EVQLQQSGPELVKPGASVKISCKASGYDFTGYYMNWMKQSPEKSLEWIGEINPITSHNTFNQKFKAKATLTVDRSSSTAYMHLKSLTSEDSAVYYCARRDYGTSLDYWGQGTTLTVSS VL: DVQITQSPSYLAASPGETITIYCRASKSISKYLAWYQEKPEKTIRLLIYAGSTLQSGIPSRFRGSGSGTDFTLTVSGLEPEDFAMYYCQQHNEYPLTFGAGTKLELK	
					0.45	0.44	0.00884	0.0119	1.34e+06	VH4 + VL3 (humanized 4451) (antibody, V domains shown, IgG expressed in HEK293) VH: QVQLVQSGAEVKKPGASVKVSCKASGYDFTGYHMNWVKQAPGQGLEWIGEINPITSDKTFNQKFKSRATMTVDRSISTAYMELSRLRSDDTAVYYCARRDYGTSLDYWGQGTTVTVSS VL: DIQLTQSPSFLSASVGDRVTITCRASKSISKYLAWYQQKPGKAPKLLIYAGSTLHSGIPSRFRGSGSGTEFTLTISSLQPEDFATYYCQQHNEYPITFGQGTKLEIK	
					0.45	0.43	0.00833	0.0128	1.54e+06	VH4 + VL1 (humanized 4451) (antibody, V domains shown, IgG expressed in HEK293) VH: QVQLVQSGAEVKKPGASVKVSCKASGYDFTGYHMNWVKQAPGQGLEWIGEINPITSDKTFNQKFKSRATMTVDRSISTAYMELSRLRSDDTAVYYCARRDYGTSLDYWGQGTTVTVSS VL: DIQLTQSPSFLSASVGDRVTITCRASKSISKYLAWYQQKPGKAPKLLIYAGSTLHSGVPSRFSGSGSGTEFTLTISSLQPEDFATYYCQQHNEYPITFGQGTKLEIK	
					0.44	0.43	0.009	0.0115	1.28e+06	VH4 + VL2 (humanized 4451) (antibody, V domains shown, IgG expressed in HEK293) VH: QVQLVQSGAEVKKPGASVKVSCKASGYDFTGYHMNWVKQAPGQGLEWIGEINPITSDKTFNQKFKSRATMTVDRSISTAYMELSRLRSDDTAVYYCARRDYGTSLDYWGQGTTVTVSS VL: DIQLTQSPSFLSASVGDRVTITCRASKSISKYLAWYQQKPGKAPRLLIYAGSTLHSGVPSRFRGSGSGTEFTLTISSLQPEDFATYYCQQHNEYPITFGQGTKLEIK	
